Tests used:
PARP1 [1] = target: T1, PARP1 (UniProt P09874 1-1014); test: pull-down (FREP); EcoRI and BamHI release; EMSA: 0, 2, 5 or 10 ug PARP1 pre-incubated 30 min with 50 ng DNA probe (Thermo EMSA kit), nondenaturing PAGE; buffer, salt, pH and temperature not given in the; conditions: label: 5' biotin
PARP1 [2] = target: T1, PARP1; test: competition; 40-fold excess over FoxO1-R-B-biotin in FREP; EMSA: 0, 2, 5 or 10 ug PARP1 pre-incubated 30 min with 50 ng DNA probe (Thermo EMSA kit), nondenaturing PAGE; buffer, salt, pH and temperature not given in the

T1 sequence (P09874 whole entry): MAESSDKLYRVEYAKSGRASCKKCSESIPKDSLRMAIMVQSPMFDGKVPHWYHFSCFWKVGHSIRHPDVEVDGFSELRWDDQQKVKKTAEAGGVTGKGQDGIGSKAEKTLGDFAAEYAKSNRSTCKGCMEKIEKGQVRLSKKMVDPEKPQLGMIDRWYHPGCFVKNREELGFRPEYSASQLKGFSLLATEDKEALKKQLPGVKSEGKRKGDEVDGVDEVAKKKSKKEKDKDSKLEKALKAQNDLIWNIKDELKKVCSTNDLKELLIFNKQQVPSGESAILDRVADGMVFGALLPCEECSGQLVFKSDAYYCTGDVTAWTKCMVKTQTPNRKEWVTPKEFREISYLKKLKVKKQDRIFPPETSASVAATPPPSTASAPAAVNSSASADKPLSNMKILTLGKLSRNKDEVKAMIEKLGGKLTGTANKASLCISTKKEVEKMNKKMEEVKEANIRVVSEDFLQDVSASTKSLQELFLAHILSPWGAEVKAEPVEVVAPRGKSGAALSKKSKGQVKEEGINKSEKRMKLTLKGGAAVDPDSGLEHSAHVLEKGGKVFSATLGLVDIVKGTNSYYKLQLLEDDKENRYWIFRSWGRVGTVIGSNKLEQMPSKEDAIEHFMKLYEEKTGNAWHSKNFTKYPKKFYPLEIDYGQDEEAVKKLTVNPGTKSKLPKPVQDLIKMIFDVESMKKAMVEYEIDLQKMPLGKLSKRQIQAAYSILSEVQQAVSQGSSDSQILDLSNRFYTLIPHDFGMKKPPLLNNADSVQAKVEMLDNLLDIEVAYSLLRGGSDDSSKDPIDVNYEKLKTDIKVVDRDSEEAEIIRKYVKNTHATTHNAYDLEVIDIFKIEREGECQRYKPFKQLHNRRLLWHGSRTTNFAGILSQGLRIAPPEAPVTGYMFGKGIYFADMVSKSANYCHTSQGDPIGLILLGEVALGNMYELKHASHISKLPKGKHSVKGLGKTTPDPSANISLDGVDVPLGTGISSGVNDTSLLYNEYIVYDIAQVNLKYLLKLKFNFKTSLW

B1: FoxO1-L-B-biotin (dsDNA)
DNA 1: AATGATACGGCGACCACCGAGGATCCTCACTGTATTCTTGAATTCTCGTATGCCGTCTTCGCTTG
DNA 2: CAAGCGAAGACGGCATACGAGAATTCAAGAATACAGTGAGGATCCTCGGTGGTCGCCGTATCATT
binding result (PARP1 [1]): binds

B2: FoxO1-R-B-biotin (dsDNA)
DNA 1: AATGATACGGCGACCACCGAGGATCCTCTTGTGGTCTCTTCACGTTTACGAATTCTCGTATGCCGTCTTCTGCTTG
DNA 2: CAAGCAGAAGACGGCATACGAGAATTCGTAAACGTGAAGAGACCACAAGAGGATCCTCGGTGGTCGCCGTATCATT
binding result (PARP1 [1]): binds

B3: FoxO1-R-B (free competitor) (dsDNA)
DNA 1: B2 DNA 1
DNA 2: B2 DNA 2
binding result (PARP1 [2]): binds

From publication PMC6987093, “Polymerase independent repression of FoxO1 transcription by sequence-specific PARP1 binding to FoxO1 promoter”
